The values that follow are results of earlier work, collected in PMC3044768.

Like-named read-outs stand apart in the source and are kept apart here.

Data set [1] has as its target SARS 3CLpro 3CLpro (Severe acute respiratory syndrome coronavirus) (UniProt P0C6X7). The note with it: cited from earlier work.
Data set [2] has the same target. The note with it: cited from earlier work. The source holds these as a separate data set.

For “SARS 3CLpro 3CLpro (from UniProt P0C6X7)”, the Kd in data set [1] was 5.2 µM; in data set [2], 12.7 µM.
